Results from patent publication US20100260668A1 (published 2010).

Biological target: T1, DLL4 ECD His tag (UniProt Q9NR61 27-529, limits assumed)
T1 construct: extracellular domain; also called DLL ECD His tag
Assay: SPR (Biacore), DVD-Ig captured, DLL4 as analyte

| Binder | Kd | koff | kon |
| --- | --- | --- | --- |
| DVD465 (bispecific antibody, human IgG1, kappa, HC linker short, LC linker short; also called DVD-Ig DVD465) heavy: not shown light: DIQMTQSPSSLSASVGDRVTITCRASQDVSTAVAWYQQKPGKAPKLLIYSASFLYSGVPSRFSGSGSGTDFTLTISSLQPEDFATTYYCQQSYTGTVTFGQGTKVEIKRTVAAPDIQMTQSPSSLSASVGDRVTITCRASQDVSTAVAWYQQKPGKAPKLLIYSASFLYSGVPSRFSGSGSGTDFTLTISSLQPEDFATYYCQQSYTTPPTFGQGTKVEIKRTVAAPSVFIFPPSDEQLKSGTASVVCLLNNFYPREAKVQWKVDNALQSGNSQESVTEQDSKDSTYSLSSTLTLSKADYEKHKVYACEVTHQGLSSPVTKSFNRGEC | 0.205 nM | 0.000164 s⁻¹ | 797000 M⁻¹ s⁻¹ |
| DVD477 (bispecific antibody, human IgG1, kappa, L234A L235A, HC linker long, LC linker short; also called DVD-Ig DVD477) heavy: not shown light: DIQMTQSPSSLSASVGDRVTITCRASQDVSTAVAWYQQKPGKAPKLLIYSASFLYSGVPSRFSGSGSGTDFTLTISSLQPEDFATTYYCQQSYTGTVTFGQGTKVEIKRTVAAPDIQMTQSPSSLSASVGDRVTITCRASQDVSTAVAWYQQKPGKAPKLLIYSASFLYSGVPSRFSGSGSGTDFTLTISSLQPEDFATYYCQQSYTTPPTFGQGTKVEIKRTVAAPSVFIFPPSDEQLKSGTASVVCLLNNFYPREAKVQWKVDNALQSGNSQESVTEQDSKDSTYSLSSTLTLSKADYEKHKVYACEVTHQGLSSPVTKSFNRGEC | 0.306 nM | 0.000165 s⁻¹ | 540000 M⁻¹ s⁻¹ |
| DVD516 (bispecific antibody, human IgG1, lambda, Outer AB071 (VEGF), inner AB073 (DLL4); HC linker short, LC linker short; also called DVD-Ig DVD516) heavy: not shown light: DIQMTQSPSSLSASVGDRVTITCRASQVIRRSLAWYQQKPGKAPKLLIYAASNLASGVPSRFSGSGSGTDFTLTISSLQPEDFATYYCQQSNTSPLTFGQGTKVEIKRTVAAPQAVVTQESALTTSPGETVTLTCRSSTGAVTTSNYANWVQEKPDHLFTGLIGGTNNRAPGVPARFSGSLIGDKAALTITGAQTEDEAIYFCALWYSNHWVFGGGTKLTVLGQPKAAPSVTLFPPSSEELQANKATLVCLISDFYPGAVTVAWKADSSPVKAGVETTTPSKQSNNKYAASSYLSLTPEQWKSHRSYSCQVTHEGSTVEKTVAPTECS | 4.99 nM | 0.000583 s⁻¹ | 117000 M⁻¹ s⁻¹ |
| DVD528 (bispecific antibody, human IgG1, lambda, Outer AB071 (VEGF), inner AB073 (DLL4); HC linker long, LC linker short; also called DVD-Ig DVD528) heavy: not shown light: DIQMTQSPSSLSASVGDRVTITCRASQVIRRSLAWYQQKPGKAPKLLIYAASNLASGVPSRFSGSGSGTDFTLTISSLQPEDFATYYCQQSNTSPLTFGQGTKVEIKRTVAAPQAVVTQESALTTSPGETVTLTCRSSTGAVTTSNYANWVQEKPDHLFTGLIGGTNNRAPGVPARFSGSLIGDKAALTITGAQTEDEAIYFCALWYSNHWVFGGGTKLTVLGQPKAAPSVTLFPPSSEELQANKATLVCLISDFYPGAVTVAWKADSSPVKAGVETTTPSKQSNNKYAASSYLSLTPEQWKSHRSYSCQVTHEGSTVEKTVAPTECS | 4.81 nM | 0.00152 s⁻¹ | 316000 M⁻¹ s⁻¹ |
| DVD522 (bispecific antibody, human IgG1, kappa, lambda, L234A L235A, Outer AB071 (VEGF), inner AB073 (DLL4); HC linker long, LC linker long; also called DVD-Ig DVD522) heavy: not shown light: DIQMTQSPSSLSASVGDRVTITCRASQVIRRSLAWYQQKPGKAPKLLIYAASNLASGVPSRFSGSGSGTDFTLTISSLQPEDFATYYCQQSNTSPLTFGQGTKVEIKRTVAAPSVFIFPPQAVVTQESALTTSPGETVTLTCRSSTGAVTTSNYANWVQEKPDHLFTGLIGGTNNRAPGVPARFSGSLIGDKAALTITGAQTEDEAIYFCALWYSNHWVFGGGTKLTVLGQPKAAPSVTLFPPSSEELQANKATLVCLISDFYPGAVTVAWKADSSPVKAGVETTTPSKQSNNKYAASSYLSLTPEQWKSHRSYSCQVTHEGSTVEKTVAPTECS | 10.5 nM | 0.00121 s⁻¹ | 115000 M⁻¹ s⁻¹ |
| DVD534 (bispecific antibody, human IgG1, kappa, lambda, L234A L235A, Outer AB071 (VEGF), inner AB073 (DLL4); HC linker short, LC linker long; also called DVD-Ig DVD534) heavy: not shown light: DIQMTQSPSSLSASVGDRVTITCRASQVIRRSLAWYQQKPGKAPKLLIYAASNLASGVPSRFSGSGSGTDFTLTISSLQPEDFATYYCQQSNTSPLTFGQGTKVEIKRTVAAPSVFIFPPQAVVTQESALTTSPGETVTLTCRSSTGAVTTSNYANWVQEKPDHLFTGLIGGTNNRAPGVPARFSGSLIGDKAALTITGAQTEDEAIYFCALWYSNHWVFGGGTKLTVLGQPKAAPSVTLFPPSSEELQANKATLVCLISDFYPGAVTVAWKADSSPVKAGVETTTPSKQSNNKYAASSYLSLTPEQWKSHRSYSCQVTHEGSTVEKTVAPTECS | 5.78 nM | 0.002 s⁻¹ | 346000 M⁻¹ s⁻¹ |
| DVD449 (bispecific antibody, human IgG1, kappa, HC linker long, LC linker long; also called DVD-Ig DVD449) heavy: not shown light: DIVMTQSPDSLAVSLGERATISCRASESVDNYGISFMKWFQQKPGQPPKLLIYAASNQGSGVPDRFSGSGSGTDFTLTISSLQAEDVAVYYCQQSKEVPWTFGGGTKVEIKRTVAAPSVFIFPPDIQMTQSPSSLSASVGDRVTITCRASQDVSTAVAWYQQKPGKAPKLLIYSASFLYSGVPSRFSGSGSGTDFTLTISSLQPEDFATYYCQQSYTTPPTFGQGTKVEIKRTVAAPSVFIFPPSDEQLKSGTASVVCLLNNFYPREAKVQWKVDNALQSGNSQESVTEQDSKDSTYSLSSTLTLSKADYEKHKVYACEVTHQGLSSPVTKSFNRGEC | 4.81 nM | 0.000584 s⁻¹ | 121000 M⁻¹ s⁻¹ |
| DVD492 (bispecific antibody, human IgG1, kappa, Outer AB071 (VEGF), inner AB072 (DLL4); HC linker short, LC linker short; also called DVD-Ig DVD492) heavy: not shown light: DIQMTQSPSSLSASVGDRVTITCRASQVIRRSLAWYQQKPGKAPKLLIYAASNLASGVPSRFSGSGSGTDFTLTISSLQPEDFATYYCQQSNTSPLTFGQGTKVEIKRTVAAPDIQMTQSSSYLSVSLGGRVTITCKASDHINNWLAWYQQKPGNAPRLLISGATSLETGVPSRFSGSGSGKDYTLSITSLQTEDVATYYCQQYWSIPLTFGAGTKLELKRTVAAPSVFIFPPSDEQLKSGTASVVCLLNNFYPREAKVQWKVDNALQSGNSQESVTEQDSKDSTYSLSSTLTLSKADYEKHKVYACEVTHQGLSSPVTKSFNRGEC | 1.07 nM | 8.35e-05 s⁻¹ | 78200 M⁻¹ s⁻¹ |
| DVD504 (bispecific antibody, human IgG1, kappa, Outer AB071 (VEGF), inner AB072 (DLL4); HC linker long, LC linker short; also called DVD-Ig DVD504) heavy: not shown light: DIQMTQSPSSLSASVGDRVTITCRASQVIRRSLAWYQQKPGKAPKLLIYAASNLASGVPSRFSGSGSGTDFTLTISSLQPEDFATYYCQQSNTSPLTFGQGTKVEIKRTVAAPDIQMTQSSSYLSVSLGGRVTITCKASDHINNWLAWYQQKPGNAPRLLISGATSLETGVPSRFSGSGSGKDYTLSITSLQTEDVATYYCQQYWSIPLTFGAGTKLELKRTVAAPSVFIFPPSDEQLKSGTASVVCLLNNFYPREAKVQWKVDNALQSGNSQESVTEQDSKDSTYSLSSTLTLSKADYEKHKVYACEVTHQGLSSPVTKSFNRGEC | 1.26 nM | 7.32e-05 s⁻¹ | 58100 M⁻¹ s⁻¹ |
| DVD464 (bispecific antibody, human IgG1, kappa, Outer AB071 (VEGF), inner AB069 (DLL4); HC linker short, LC linker long; also called DVD-Ig DVD464) heavy: not shown light: DIQMTQSPSSLSASVGDRVTITCRASQVIRRSLAWYQQKPGKAPKLLIYAASNLASGVPSRFSGSGSGTDFTLTISSLQPEDFATYYCQQSNTSPLTFGQGTKVEIKRTVAAPSVFIFPPDIVMTQSPDSLAVSLGERATISCRASESVDNYGISFMKWFQQKPGQPPKLLIYAASNQGSGVPDRFSGSGSGTDFTLTISSLQAEDVAVYYCQQSKEVPWTFGGGTKVEIKRTVAAPSVFIFPPSDEQLKSGTASVVCLLNNFYPREAKVQWKVDNALQSGNSQESVTEQDSKDSTYSLSSTLTLSKADYEKHKVYACEVTHQGLSSPVTKSFNRGEC | 5.53 nM | 0.000182 s⁻¹ | 32800 M⁻¹ s⁻¹ |
| DVD471 (bispecific antibody, human IgG1, kappa, L234A L235A, HC linker long, LC linker long; also called DVD-Ig DVD471) heavy: not shown light: DIQMTQSPSSLSASVGDRVTITCRASQDVSTAVAWYQQKPGKAPKLLIYSASFLYSGVPSRFSGSGSGTDFTLTISSLQPEDFATTYYCQQSYTGTVTFGQGTKVEIKRTVAAPSVFIFPPDIQMTQSPSSLSASVGDRVTITCRASQDVSTAVAWYQQKPGKAPKLLIYSASFLYSGVPSRFSGSGSGTDFTLTISSLQPEDFATYYCQQSYTTPPTFGQGTKVEIKRTVAAPSVFIFPPSDEQLKSGTASVVCLLNNFYPREAKVQWKVDNALQSGNSQESVTEQDSKDSTYSLSSTLTLSKADYEKHKVYACEVTHQGLSSPVTKSFNRGEC | 0.672 nM | 0.000252 s⁻¹ | 376000 M⁻¹ s⁻¹ |
| DVD483 (bispecific antibody, human IgG1, kappa, HC linker short, LC linker long; also called DVD-Ig DVD483) heavy: not shown light: DIQMTQSPSSLSASVGDRVTITCRASQDVSTAVAWYQQKPGKAPKLLIYSASFLYSGVPSRFSGSGSGTDFTLTISSLQPEDFATTYYCQQSYTGTVTFGQGTKVEIKRTVAAPSVFIFPPDIQMTQSPSSLSASVGDRVTITCRASQDVSTAVAWYQQKPGKAPKLLIYSASFLYSGVPSRFSGSGSGTDFTLTISSLQPEDFATYYCQQSYTTPPTFGQGTKVEIKRTVAAPSVFIFPPSDEQLKSGTASVVCLLNNFYPREAKVQWKVDNALQSGNSQESVTEQDSKDSTYSLSSTLTLSKADYEKHKVYACEVTHQGLSSPVTKSFNRGEC | 0.334 nM | 0.000139 s⁻¹ | 416000 M⁻¹ s⁻¹ |
| DVD443 (bispecific antibody, human IgG1, kappa, HC linker short, LC linker short; also called DVD-Ig DVD443) heavy: not shown light: DIVMTQSPDSLAVSLGERATISCRASESVDNYGISFMKWFQQKPGQPPKLLIYAASNQGSGVPDRFSGSGSGTDFTLTISSLQAEDVAVYYCQQSKEVPWTFGGGTKVEIKRTVAAPDIQMTQSPSSLSASVGDRVTITCRASQDVSTAVAWYQQKPGKAPKLLIYSASFLYSGVPSRFSGSGSGTDFTLTISSLQPEDFATYYCQQSYTTPPTFGQGTKVEIKRTVAAPSVFIFPPSDEQLKSGTASVVCLLNNFYPREAKVQWKVDNALQSGNSQESVTEQDSKDSTYSLSSTLTLSKADYEKHKVYACEVTHQGLSSPVTKSFNRGEC | 4.11 nM | 0.000596 s⁻¹ | 145000 M⁻¹ s⁻¹ |
| DVD498 (bispecific antibody, human IgG1, kappa, Outer AB071 (VEGF), inner AB072 (DLL4); HC linker long, LC linker long; also called DVD-Ig DVD498) heavy: not shown light: DIQMTQSPSSLSASVGDRVTITCRASQVIRRSLAWYQQKPGKAPKLLIYAASNLASGVPSRFSGSGSGTDFTLTISSLQPEDFATYYCQQSNTSPLTFGQGTKVEIKRTVAAPSVFIFPPDIQMTQSSSYLSVSLGGRVTITCKASDHINNWLAWYQQKPGNAPRLLISGATSLETGVPSRFSGSGSGKDYTLSITSLQTEDVATYYCQQYWSIPLTFGAGTKLELKRTVAAPSVFIFPPSDEQLKSGTASVVCLLNNFYPREAKVQWKVDNALQSGNSQESVTEQDSKDSTYSLSSTLTLSKADYEKHKVYACEVTHQGLSSPVTKSFNRGEC | 1.45 nM | 9.36e-05 s⁻¹ | 64600 M⁻¹ s⁻¹ |
| DVD510 (bispecific antibody, human IgG1, kappa, Outer AB071 (VEGF), inner AB072 (DLL4); HC linker short, LC linker long; also called DVD-Ig DVD510) heavy: not shown light: DIQMTQSPSSLSASVGDRVTITCRASQVIRRSLAWYQQKPGKAPKLLIYAASNLASGVPSRFSGSGSGTDFTLTISSLQPEDFATYYCQQSNTSPLTFGQGTKVEIKRTVAAPSVFIFPPDIQMTQSSSYLSVSLGGRVTITCKASDHINNWLAWYQQKPGNAPRLLISGATSLETGVPSRFSGSGSGKDYTLSITSLQTEDVATYYCQQYWSIPLTFGAGTKLELKRTVAAPSVFIFPPSDEQLKSGTASVVCLLNNFYPREAKVQWKVDNALQSGNSQESVTEQDSKDSTYSLSSTLTLSKADYEKHKVYACEVTHQGLSSPVTKSFNRGEC | 1.55 nM | 8.84e-05 s⁻¹ | 56900 M⁻¹ s⁻¹ |
